Data taken from patent publication US10385103B2, “Cell-permeable (ICP)-SOCS3 recombinant protein and uses thereof” (CELLIVERY THERAPEUTICS, INC., priority 2014, dated 2019).
Entries after “also recorded” stand apart in the source; their conditions may differ.

Assays:
IL-6 = assay: LPS/IFN-γ-induced cytokine secretion in peritoneal macrophages (cytometric bead array), IL-6; type: cell-based, C3H/HeJ mice; details: 10 μM protein; IFN-γ and LPS
Method: Peritoneal macrophages were obtained from C3H/HeJ mice (Doo-Yeol Biotech Co. Ltd. Korea) Peritoneal macrophages were incubated with 10 μM SOCS3 recombinant proteins (1:HS3, 2:HM165S3, 3:HM165S3A and 4:HM165S3B, respectively) for 1 hr at 37° C. and then stimulated them with LPS (Lipopolysaccharide)(500 ng/ml) and/or IFN-γ (100 U/ml) without removing iCP-SOCS3 proteins for 3, 6, or 9 hrs. The culture media were collected, and the extracellular levels of cytokine (TNF-α, IL-6) were measured by a cytometric bead array (BD Pharmingen, San Diego, Calif., USA) according to the manufacturer's instructions.

PANC-1 cells = assay: Apoptotic cell analysis by TUNEL assay in pancreatic carcinoma cells; type: cell-based; details: PANC-1, 10 uM
Method: PANC-1 cells (pancreatic carcinoma cell line) were seeded in a 16-well chamber slide at a density of 5×10^3 cells/well, and then treated with 10 uM of aMTD/SD-fused SOCS3 for 24 hours. Apoptotic cells were analyzed using terminal dUTP nick-end labeling (TUNEL) assay with In Situ Cell Death Detection kit TMR red (Roche, 4056 Basel, Switzerland). Cells were treated with either 10 μM SOCS3 recombinant protein or buffer alone for 16 hrs with 2% fetal bovine serum (Hyclone, Logan, Utah, USA). Treated cells were washed with cold PBS two times, fixed in 4% paraformaldehyde (PFA, Junsei, Tokyo, Japan) for 1 hr at room temperature, and incubated in 0.1% Triton X-100 for 2 min on the ice. Cells were washed with cold PBS twice, and treated TUNEL reaction mixture for 1 hr at 37° C. in dark, washed cold PBS three times and observed by fluorescence microscopy (Nikon, Tokyo, Japan).

AGS cells = assay: Induction of apoptosis by Annexin V/7-AAD staining in gastric carcinoma cells; type: cell-based; details: 10 uM, 14 hours
Method: AGS cells (gastric carcinoma cell line) (American Type Culture Collection; ATCC) were seeded in a 12-well plate at a density of 1×10^5 cells/well, and then treated with 10 uM of aMTD/SD-fused SOCS3 for 14 hours. Cancer cell death was analyzed by Annexin V analysis. Annexin V/7-Aminoactinomycin D (7-AAD) staining was performed using flow cytometry according to the manufacturer's guidelines (BD Pharmingen, San Diego, Calif., USA). Briefly, cells were washed three times with ice-cold PBS. The cells were then resuspended in 100 μl of binding buffer and incubated with 1 μl of 7-AAD and 1 μl of annexin V-PE for 30 min in the dark at 37° C. Flow cytometric analysis was immediately performed using a guava easyCyte™ 8 Instrument (Merck Millipore, Darmstadt, Germany).

[1] = Bioavailability of FITC-labeled SOCS3 recombinant proteins after IV injection (PBMCs, splenocytes, hepatocytes, tissue sections); type: in vivo, ICR mice
Method: To investigate BA of the iCP-SOCS3 (HM165S3B) recombinant proteins, ICR mice (Doo-Yeol Biotech Co. Ltd., Seoul, Korea) were intravenous (IV) injected with 600 μg/head of 10 μM FITC (Fluorescein isothiocyanate, SIGMA, USA)-labeled SOCS3 recombinant proteins (HS3B, HM165S3B) and after 15 min, 30 min, 1H, 2H, 4H, 8H, 12H, 16H, 24H, 36H, 48H, mice of each group were sacrificed. From the mice, peripheral blood mononuclear cells (PBMCs), splenocytes, and hepatocytes were separated.
Further, the spleen was removed and washed with PBS, and then placed on a dry ice and embedded in an O.C.T. compound (Sakura). After cryosectioning at 20 μm, tissue distributions of fluorescence-labeled-SOCS3 proteins in different organs was analyzed by fluorescence microscopy (Carl Zeiss, Gottingen, Germany).
After anesthesia with ether, ophthalmectomy was performed and the blood was collected therefrom using a 1 ml syringe. The collected blood was immediately put in an EDTA tube and mixed well. The blood was centrifuged at 4,000 rpm and 4° C. for 5 minutes, and plasma was discarded and only buffy coat was collected in a new microtube. 0.5 ml of RBC lysis buffer (Sigma) was added thereto, followed by vortexing. The microtube was left at room temperature for 5 minutes, and then centrifuged at 4,000 rpm and 4° C. for 5 minutes. 0.3 ml of PBS was added to a pellet, followed by pipetting and flow cytometry (FlowJo cytometric analysis software, Guava, Millipore, Darmstadt, Germany).
Mice were laparotomized and the spleen or liver were removed. The spleen or liver thus removed was separated into single cells using a Cell Strainer (SPL, Korea). These cells were collected in a microtube, followed by centrifugation at 4,000 rpm and 4° C. for 5 minutes. 0.5 ml of RBC lysis buffer was added thereto, followed by vortexing. The microtube was left at room temperature for 5 minutes, and then centrifuged at 4,000 rpm and 4° C. for 5 minutes. 0.5 ml of PBS was added to a pellet, followed by pipetting and flow cytometry (FlowJo cytometric analysis software, Guava, Millipore, Darmstadt, Germany).

normal cells = assay: Inhibition of cell cycle progression (PI staining, flow cytometry); type: cell-based; details: 10 uM, 8 hrs
Method: HCCs and normal cells were treated with 10 uM protein (Non-CP-SOCS3 (HS3B) and iCP-SOSC3 (HM165S3B)) for 8 hrs. After the treatment, cells were washed twice with cold PBS and re-suspended in 1 ml cold PBS, fixed in cold 70% ethanol, washed with cold PBS twice and re-suspended in PI master mix (PI 10 ug/ml (SIGMA, USA), 50 ug/ml RNase A (Invitrogen, USA) in staining buffer) at a final cell density of 2×10^5 cell/ml. The cell mixtures were incubated 30 min in the dark at 4° C. Flow cytometric analysis was immediately performed using a guava easyCyte™ 8 Instrument (Merck Millipore, Darmstadt, Germany).

HepG2 tumor = assay: Anti-tumor activity in cell-derived xenograft model; details: for inhibition on the tumor size: observation 3 weeks
Method: Female Balb/c^nu/nu mice (5-week-old, Doo-Yeol Biotech Co. Ltd. Korea) were subcutaneously implanted with Hep3B2.1-7 tumor block (1 mm^3) into the left back side of the mouse. […] Tumor size was monitored by measuring the longest (length) and shortest dimensions (width) once a day with a dial caliper, and tumor volume was calculated as width2×length×0.5.
Then, tumor volumes were examined. […] Then, tumor volumes were examined.

[2] = IV 600 μg/head FITC-labeled protein

B1: HM165S3B: His-tagged recombinant protein of aMTD165, human SOCS3 and solubilization domain B; prototype improved cell-permeable SOCS3 (protein)
chain: MGSSHHHHHHSSGLVPRGSHMALAVPVALAIVPVTHSKFPAAGMETSRPLDTSLRLKTFSSKSEYQLVVNAVRKLQESGFYWSAVTGGEANLLLSAEPAGTFLIRDSSDQRHFFTLSVKTQSGTKNLRIQCEGGSFSLQSDPRSTQPVPRFDCVLKLVHHYMETPPPGAPSFPSPPTEPSSEVPEQPSAQPLPGSPPRRAYYIYSGGEKIPLVLSRPLSSNVATLQHLCRKTVNGHLDSYEKVTQLPGPIREFLDQYDAPLGSMAEQSDKDVKYYTLEEIQKHKDSKSTWVILHHKVYDLTKFLEEHPGGEEVLGEQAGGDATENFEDVGHSTDARELSKTYIIGELHPDDRSKIAKPSETL
modifications: Amino acid sequence of HM165S3B
What does the source list for B1?
effect on IL-6 secretion (IL-6): showed the greatest inhibitory effect on cytokine secretion; induction of cell death (TUNEL) (PANC-1 cells): induced death of the largest number of cancer cells; induction of apoptosis (Annexin V) (AGS cells): showed high anticancer efficacy; also recorded: effects of inducing apoptosis; induction of apoptosis (Annexin V) (AGS cells; listed as aMTD165-fused SOCS3 recombinant protein): induced death of the largest number of cancer cells; time maintained in tissues, depending on the tissues ([1]; IV): 8 to 16 h; time of delivery from blood to various tissues ([1]; IV): ≤ 2 h; distribution in pancreas tissue maintained up to [1, 2]: up to 8 hours; permeability in hepatocytes maintained up to [1, 2]: up to 16 hours; permeability in splenocytes maintained up to [1, 2]: up to 16 hours; time of maximum permeability in PBMCs [1, 2]: 30 min; time of maximum permeability in hepatocytes [1, 2]: 15 min; time of maximum permeability in splenocytes [1, 2]: 2 h; time of very high distribution in pancreas tissue [1, 2]: 2 h; cell cycle progression in normal cells (normal cells): did not inhibit cell cycle progression; tumor growth inhibition at day 42 (HepG2 tumor; IV 600 μg/head for 21 days, 3 weeks after termination): 67%; inhibition on the tumor size (HepG2 tumor; IV 25 mg/kg every day for 3 weeks): 60%; inhibition on the tumor size (HepG2 tumor; IV 50 mg/kg every day for 3 weeks): 76%; inhibition on the tumor size (HepG2 tumor; IV 50 mg/kg three times a week for 3 weeks): 66%
